The text below walks through data of patent US20200338203A1 (Bicycle, published 2020).

Experiment [1] addresses T1, Human EphA2 (Ecto) (Human, UniProt P29317 24-537).
T1 construct: extracellular domain
The experiment in a line: FP direct binding.

Experiment [2] concerns the target T2, Mouse EphA2 (Ecto) (Mouse, UniProt Q03145 26-538).
T2 construct: extracellular domain; not shown: Fc fusion or C-terminal polyHis
Kind of experiment: FP direct binding.

Experiment [3] addresses Human & mouse EphA3 (Human & mouse) (UniProt P29320). Kind of experiment: FP direct binding, selectivity.
For a further experiment, the target named is dog EphA2 (Dog). The experiment in a line: FP direct binding, selectivity.
For another experiment, the target named is human EphA4 (Human) (UniProt P54764). Kind of experiment: FP direct binding, selectivity.
Sequence of human EphA4 (Human) (P54764 20-547): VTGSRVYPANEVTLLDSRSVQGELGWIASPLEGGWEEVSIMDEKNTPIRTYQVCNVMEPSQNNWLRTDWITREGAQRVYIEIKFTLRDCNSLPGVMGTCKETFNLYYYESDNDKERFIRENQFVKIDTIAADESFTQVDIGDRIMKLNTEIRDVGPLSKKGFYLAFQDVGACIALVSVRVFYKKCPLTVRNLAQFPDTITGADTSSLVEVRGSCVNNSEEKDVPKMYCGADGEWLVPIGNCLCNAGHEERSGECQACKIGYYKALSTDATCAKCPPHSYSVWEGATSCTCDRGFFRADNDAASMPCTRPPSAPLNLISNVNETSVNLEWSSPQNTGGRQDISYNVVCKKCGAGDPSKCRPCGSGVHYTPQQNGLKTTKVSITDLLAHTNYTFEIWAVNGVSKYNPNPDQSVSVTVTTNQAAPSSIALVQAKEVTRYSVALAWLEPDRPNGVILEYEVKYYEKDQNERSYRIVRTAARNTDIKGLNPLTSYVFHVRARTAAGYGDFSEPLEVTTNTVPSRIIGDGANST
The target in experiment [4] is rat & mouse EphA4 (rat & mouse) (UniProt D3ZZK3). The experiment in a line: FP direct binding, selectivity.
The next experiment deals with rat EphA3 (Rat) (UniProt O08680). The experiment in a line: FP direct binding, selectivity.
Sequence of rat EphA3 (Rat) (O08680 21-541): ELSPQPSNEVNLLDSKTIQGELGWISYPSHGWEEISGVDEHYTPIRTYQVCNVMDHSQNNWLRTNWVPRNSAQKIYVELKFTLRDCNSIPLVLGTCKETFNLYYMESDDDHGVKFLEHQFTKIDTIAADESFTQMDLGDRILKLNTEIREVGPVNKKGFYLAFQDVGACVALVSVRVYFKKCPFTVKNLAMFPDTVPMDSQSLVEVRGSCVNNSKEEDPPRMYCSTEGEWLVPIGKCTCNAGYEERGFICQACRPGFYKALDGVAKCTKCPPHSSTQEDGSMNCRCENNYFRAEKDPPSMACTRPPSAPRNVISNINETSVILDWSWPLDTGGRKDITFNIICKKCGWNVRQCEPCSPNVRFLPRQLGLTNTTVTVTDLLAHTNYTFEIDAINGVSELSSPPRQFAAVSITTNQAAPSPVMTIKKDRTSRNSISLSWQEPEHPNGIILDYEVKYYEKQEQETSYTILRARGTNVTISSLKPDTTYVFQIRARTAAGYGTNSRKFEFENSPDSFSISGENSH
In another experiment the target is T3, Human EphA1 (Human, UniProt P21709 26-547).
T3 construct: extracellular domain; also called EphA1 (Ecto), Human
T3 sequence (looked up): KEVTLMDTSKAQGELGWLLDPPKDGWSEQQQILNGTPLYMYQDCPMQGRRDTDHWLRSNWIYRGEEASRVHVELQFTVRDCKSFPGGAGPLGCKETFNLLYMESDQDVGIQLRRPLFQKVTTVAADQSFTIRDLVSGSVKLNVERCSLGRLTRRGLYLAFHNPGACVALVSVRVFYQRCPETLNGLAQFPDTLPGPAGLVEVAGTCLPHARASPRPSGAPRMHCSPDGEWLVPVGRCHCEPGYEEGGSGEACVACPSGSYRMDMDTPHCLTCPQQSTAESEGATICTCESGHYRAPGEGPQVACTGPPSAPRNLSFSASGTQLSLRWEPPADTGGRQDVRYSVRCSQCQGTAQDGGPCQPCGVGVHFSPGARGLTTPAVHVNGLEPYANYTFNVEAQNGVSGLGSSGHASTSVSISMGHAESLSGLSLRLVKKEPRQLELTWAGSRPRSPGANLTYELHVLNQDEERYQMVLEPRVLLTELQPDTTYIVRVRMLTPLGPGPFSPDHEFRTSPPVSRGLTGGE
Kind of experiment: FP direct binding, selectivity. Here is the method:
(§1) The gain used for analysis was determined for each tracer at the end of the 60 minutes where there was no protein in the well. Data was analysed using Systat Sigmaplot version 12.0. mP values were fit to a user defined quadratic equation to generate a Kd value: f=ymin+(ymax−ymin)/Lig*((x+Lig+Kd)/2-sqrt((((x+Lig+Kd)/2)\hat{ }2)−(Lig*x))). “Lig” was a defined value of the concentration of tracer used.

The target of a further experiment is T4, mouse EphA2 (Mouse, UniProt Q03145 26-538).
T4 construct: extracellular domain; C-terminal polyHis; also called EphA2 (Ecto), Mouse
T4 sequence (Q03145 26-538): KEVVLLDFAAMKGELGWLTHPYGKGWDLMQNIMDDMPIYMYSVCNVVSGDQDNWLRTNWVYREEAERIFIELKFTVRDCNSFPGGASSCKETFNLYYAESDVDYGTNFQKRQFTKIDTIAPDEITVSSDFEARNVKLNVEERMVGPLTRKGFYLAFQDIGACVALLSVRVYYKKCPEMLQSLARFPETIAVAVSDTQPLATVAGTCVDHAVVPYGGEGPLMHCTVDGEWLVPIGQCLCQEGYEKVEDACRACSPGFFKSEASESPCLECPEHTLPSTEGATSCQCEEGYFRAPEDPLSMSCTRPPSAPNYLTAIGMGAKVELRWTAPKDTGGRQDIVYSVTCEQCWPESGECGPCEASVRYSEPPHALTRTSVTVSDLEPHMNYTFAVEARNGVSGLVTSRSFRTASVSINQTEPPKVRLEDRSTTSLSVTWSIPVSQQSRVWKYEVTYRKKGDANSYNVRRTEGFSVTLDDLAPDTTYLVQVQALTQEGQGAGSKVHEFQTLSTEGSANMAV
Kind of experiment: FP direct binding, selectivity. The method, then:
as §1

The target in the next experiment is rat EphA2 (Rat, UniProt D3ZBN3 27-205). The experiment in a line: FP direct binding, selectivity. The method, then:
as §1

The next experiment addresses T5, rat EphB1 (Rat, UniProt P09759 18-540).
T5 construct: extracellular domain; also called EphB1 (Ecto), Rat
T5 sequence (looked up): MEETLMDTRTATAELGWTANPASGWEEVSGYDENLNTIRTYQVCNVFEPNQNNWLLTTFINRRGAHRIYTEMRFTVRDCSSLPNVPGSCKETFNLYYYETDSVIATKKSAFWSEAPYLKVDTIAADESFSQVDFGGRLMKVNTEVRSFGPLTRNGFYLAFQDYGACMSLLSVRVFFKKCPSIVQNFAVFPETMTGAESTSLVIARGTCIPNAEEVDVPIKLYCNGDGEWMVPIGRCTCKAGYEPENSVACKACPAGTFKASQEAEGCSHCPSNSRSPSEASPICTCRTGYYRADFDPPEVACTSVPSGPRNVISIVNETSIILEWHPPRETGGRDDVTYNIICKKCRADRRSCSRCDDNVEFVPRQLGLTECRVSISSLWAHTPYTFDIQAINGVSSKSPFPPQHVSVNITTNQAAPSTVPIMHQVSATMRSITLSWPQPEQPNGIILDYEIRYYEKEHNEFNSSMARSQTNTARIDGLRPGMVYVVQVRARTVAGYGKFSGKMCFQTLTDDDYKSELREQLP
Kind of experiment: FP direct binding, selectivity. Here is the method: as §1

For the next experiment, the target named is dog EphA2 (Dog, UniProt A0A286R219 28-206). The experiment in a line: FP direct binding, selectivity. Here is the method:
as §1

Experiment [5] concerns the target T1, Human EphA2 (Ecto). The experiment in a line: FP competition; competitor Compound 1. Here is the method: (§2) Peptides without a fluorescent tag were tested in competition with a peptide with a fluorescent tag and a known Kd (Table 2). Peptides were diluted to an appropriate concentration in assay buffer as described in the direct binding assay with a maximum of 5% DMSO, then serially diluted 1 in 2. Five μL of diluted peptide was added to the plate followed by 10 μL of human or mouse EphA2 (Table 1) at a fixed concentration which was dependent on the fluorescent peptide used (Table 2), then 10 μL fluorescent peptide added. Measurements were conducted as for the direct binding assay, however the gain was determined prior to the first measurement.

In experiment [6] the target is T1, Human EphA2 (Ecto). Kind of experiment: FP competition; competitor Compound 12. The method, then:
as §2

Experiment [7] deals with T1, Human EphA2 (Ecto). The experiment in a line: FP competition; competitor Compound 66. Here is the method: as §2
Experiment [8] has as its target T1, Human EphA2 (Ecto). The experiment in a line: FP direct binding. The method, then: as §1
This is another data set of the same source.

Experiment [9] has as its target T2, Mouse EphA2 (Ecto). Kind of experiment: FP direct binding. Here is the method:
as §1
This is another data set of the same source.

Another experiment deals with T6, Human EphA2 (Human, UniProt P29317 24-537).
T6 construct: extracellular domain; also called EphA2 (Ecto), Human
T6 sequence (P29317 24-537): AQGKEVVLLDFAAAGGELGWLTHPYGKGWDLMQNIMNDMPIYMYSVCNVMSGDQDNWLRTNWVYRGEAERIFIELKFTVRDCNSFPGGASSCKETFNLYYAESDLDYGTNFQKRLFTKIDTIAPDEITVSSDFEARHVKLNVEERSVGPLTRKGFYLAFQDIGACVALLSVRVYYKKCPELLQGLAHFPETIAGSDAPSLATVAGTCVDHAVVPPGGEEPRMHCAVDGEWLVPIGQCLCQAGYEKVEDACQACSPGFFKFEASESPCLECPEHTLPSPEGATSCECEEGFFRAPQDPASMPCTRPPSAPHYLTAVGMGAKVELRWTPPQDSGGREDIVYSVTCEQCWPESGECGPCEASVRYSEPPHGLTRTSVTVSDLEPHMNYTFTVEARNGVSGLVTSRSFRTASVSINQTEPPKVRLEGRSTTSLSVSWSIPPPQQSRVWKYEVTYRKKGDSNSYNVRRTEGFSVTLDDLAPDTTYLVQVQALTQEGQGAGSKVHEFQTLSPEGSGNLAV
Kind of experiment: FP competition; competitor: fluorescent Compound 12. Here is the method:
as §2

What is called Kd is the free concentration of one partner at which half of the binding sites on the other are occupied at equilibrium, for simple one-to-one binding. Lower therefore signals tighter binding. In general, Ki refers to a dissociation constant, usually derived from enzyme kinetics or from competition with a known ligand.

Like-named read-outs stand apart in the source and are kept apart here. Numbered stars: 1 amine (or outer) side, 2 acyl side, 3 side chain; on linkers, the order of the positions; unused ones are H or OH. Bridge positions count the residues as written; N and C are the ends. Square brackets hold non-standard residues; d marks the D form. Ends that are not written are not given here. DM1 = thiol-containing maytansine derivative (cytotoxic agent); AlexaFluor488 = AlexaFluor488 fluorescent dye label; disulphide linker of formula (B) = not defined here; K(FI) = lysine carrying a fluorescein label (FI); 1Nal = N[C@@H](Cc1cccc2ccccc12)C(=O)O; TBMB = c1c(C[*:1])cc(C[*:3])cc1C[*:2]; Gly(cPent) = N[C@H](C(=O)O)C1CCCC1; hArg = N=C(N)NCCCC[C@H](N)C(=O)O; Tle = CC(C)(C)[C@H](N)C(=O)O; AF488 = AlexaFluor488 label; Aib = CC(C)(N)C(=O)O; βAla = NCCC(=O)O; Sar = CNCC(=O)O

T1 sequence (P29317 24-537): as above
T2 sequence (Q03145 26-538): as the sequence (Q03145 26-538) above
Sequence of Human & mouse EphA3 (Human & mouse) (P29320 21-541): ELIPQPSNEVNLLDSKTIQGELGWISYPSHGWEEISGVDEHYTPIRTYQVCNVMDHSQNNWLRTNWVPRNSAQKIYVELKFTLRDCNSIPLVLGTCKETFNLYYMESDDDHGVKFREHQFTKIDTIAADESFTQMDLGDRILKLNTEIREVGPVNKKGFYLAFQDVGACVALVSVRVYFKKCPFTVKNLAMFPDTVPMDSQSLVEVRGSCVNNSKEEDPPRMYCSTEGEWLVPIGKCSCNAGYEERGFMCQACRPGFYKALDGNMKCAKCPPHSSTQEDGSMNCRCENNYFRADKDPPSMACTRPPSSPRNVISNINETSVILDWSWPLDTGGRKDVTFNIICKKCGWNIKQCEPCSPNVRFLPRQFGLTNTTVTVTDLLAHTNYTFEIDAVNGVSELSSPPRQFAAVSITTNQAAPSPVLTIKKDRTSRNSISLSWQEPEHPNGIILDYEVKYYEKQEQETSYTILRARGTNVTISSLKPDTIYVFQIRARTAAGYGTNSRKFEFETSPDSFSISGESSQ

As to {AF488-βAla}-[Sar][Sar][Sar][Sar][Sar][Sar][Sar][Sar][Sar][Sar]H[dD]VPCP[1Nal]G[Aib]F[1Nal]CP[Tle]NR[Aib][dD]C (linker 15-22-29 via TBMB) [Compound 145], the Kd worked out at 0.00217 µM with Human EphA2 (Ecto) [1]; 0.0038 µM in the experiment with Mouse EphA2 (Ecto) [2]; 0.129 µM in [3]; 0.00499 µM in the experiment with dog EphA2 (Dog); 1.5 µM with human EphA4 (Human); 2.54 µM in experiment [4]. Further, the Kd is 0.297 µM with rat EphA3 (Rat); 7.26 µM with Human EphA1; 0.0038 µM with mouse EphA2; 0.001 µM with rat EphA2; 5.42 µM with rat EphB1.

ADVTCPWGPFWCPVNRPGCA (N-terminal Fl-G-Sar5 before the entry; three Cys cyclised on TBMB, bicyclic peptide, fluorescent) [Compound 18]: the Kd was determined as 0.00402 µM with mouse EphA2, 0.00172 µM with rat EphA2, 0.00357 µM with dog EphA2 and 1.42 µM with rat EphB1.

For ACPWGPAWCPVHGKTCA (linker 2-9-16 via TBMB) [Compound 41], the inhibitory constant (Ki) in the experiment with Human EphA2 (Ecto) [5] stood at 0.263 µM.

On to {AF488-βAla}-[Sar][Sar][Sar][Sar][Sar][Sar][Sar][Sar][Sar][Sar]H[dD][Gly(cPent)]PCP[1Nal]G[Aib]F[1Nal]CP[Tle]N[hArg]P[dD]C (linker 15-22-29 via TBMB) [Compound 147], for which the dissociation constant (Kd) was 0.00107 µM in the experiment with Human EphA2 (Ecto) [1]; 0.00344 µM in the experiment with Mouse EphA2 (Ecto) [2]; 0.0825 µM in experiment [3]; 0.00358 µM with dog EphA2 (Dog); 7440 µM in the experiment with human EphA4 (Human); 1000 µM in [4]. For the same molecule, the Kd in the experiment with rat EphA3 (Rat) came out at 0.221 µM; with Human EphA1, 1.22 µM; with mouse EphA2 it was 0.00344 µM; with rat EphA2, 0.00115 µM.

Turning to ACVPQGIWCALQFEPCA (linker 2-9-16 via TBMB) [Compound 63], the Ki in the experiment with Human EphA2 (Ecto) [5] was found to be 0.144 µM; with Human EphA2 (Ecto) [6] it was 0.0922 µM; with Human EphA2 (Ecto) [7], 0.0825 µM.

Consider ACTTGSIWCALQFEPCA (linker 2-9-16 via TBMB) [Compound 64], for which the Ki with Human EphA2 (Ecto) [6] was determined as 0.41 µM; with Human EphA2 (Ecto) [7] it was 0.0634 µM.

Take ACMNDWLCQLGWTCA[Sar][Sar][Sar][Sar][Sar][Sar]-{K(FI)} (linker 2-8-14 via TBMB) [Compound 6]: the Kd in the experiment with Human EphA2 (Ecto) [8] was 0.00425 µM.

In the case of ACPWGPFWCPVNRPGC (N-terminal AlexaFluor488-G-Sar5 before the entry; three Cys cyclised on TBMB, bicyclic peptide, fluorescent) [Compound 67], the Kd in the experiment with rat EphA2 is 0.0265 µM; with dog EphA2 it was 0.0614 µM.

As to ACRNIPTMCPFGPVWCA (linker 2-9-16 via TBMB) [Compound 32], in the experiment with Human EphA2 (Ecto) [5], the Ki came to 0.0834 µM.

As for {AF488-βAla}-[Sar][Sar][Sar][Sar][Sar][Sar][Sar][Sar][Sar][Sar]H[dD]VPCPWGPFWCPVNRPGCA (linker 15-22-29 via TBMB), the Kd with Human EphA2 (Ecto) [8] came to 0.00031 µM; in the experiment with Mouse EphA2 (Ecto) [9], 0.0008 µM.

B1: BDC-5 (peptide)
peptide: {DM1-disulphide linker of formula (B)-βAla}-[Sar][Sar][Sar][Sar][Sar][Sar][Sar][Sar][Sar][Sar]ACPWAPFWCAVNRPGC
modifications: linker 12-19-26 via TBMB; reading uncertain
notes: DM1 conjugate; also called Bicyclic Peptide Drug Conjugate BDC-5; Compound 303, Formula (B)
For B1, the Ki in the experiment with Human EphA2 was more than 1 µM.

For the molecule {AF488-βAla}-[Sar][Sar][Sar][Sar][Sar][Sar][Sar][Sar][Sar][Sar]H[dD]VPCPWGPFWCPVNRPGCA (linker 15-22-29 via TBMB, bicyclic peptide, fluorescent), the Kd stood at 0.0008 µM with mouse EphA2, 0.00036 µM in the experiment with rat EphA2 and 0.00217 µM with dog EphA2.

Regarding {AlexaFluor488-βAla}-[Sar][Sar][Sar][Sar][Sar][Sar][Sar][Sar][Sar][Sar]ACPWGPFWCPVNRPGC (linker 12-19-26 via TBMB, bicyclic peptide, fluorescent) [Compound 68], the figures for the Kd in the experiment with rat EphA2 and in the experiment with dog EphA2 were 0.0159 µM and 0.0319 µM, respectively.

On to ACPWGPAWCPVNRPGCAGAAA (linker 2-9-16 via TBMB) [Compound 45], for which the Ki is 0.0992 µM with Human EphA2 (Ecto) [6] and 0.117 µM with Human EphA2 (Ecto) [7].

Regarding {AF488-βAla}-[Sar][Sar][Sar][Sar][Sar][Sar][Sar][Sar][Sar][Sar]H[dD]VPC[Aib][1Nal]G[Aib]F[1Nal]CP[Tle]NR[Aib][dD]C (linker 15-22-29 via TBMB) [Compound 141], the dissociation constant Kd with Human EphA2 (Ecto) [1] came to 0.00265 µM; in the experiment with Mouse EphA2 (Ecto) [2] it was 0.0065 µM; with dog EphA2 (Dog), 0.0133 µM; in the experiment with human EphA4 (Human) it was 238 µM; in experiment [4], 1.89 µM; with rat EphA3 (Rat) it was 0.137 µM. The results for the Kd with mouse EphA2 and with rat EphA2 were 0.0065 µM and 0.00233 µM, respectively.
